From publication PMC6650433, “Evolution of metazoan oxygen-sensing involved a conserved divergence of VHL affinity for HIF1α and HIF2α” (Nature Communications, 2019)
[ ]: non-standard residue; d: D form. The star is where a group is joined. Biotin = O=C1N[C@H]2[C@H](CS[C@H]2CCCCC(=O)*)N1; Hyp = O=C(O)[C@@H]1C[C@@H](O)CN1

Tests used:
HA-VHL30 [1] = assay: In vitro pVHL-HIFα binding (pulldown) assay, VHL WT; design: species or system human; settings: 1.2 μg biotinylated peptide on streptavidin agarose beads, IVTT HA-VHL30, EBC buffer, two hours at 4 °C, anti-HA immunoblot, qualitative
Method: The in vitro pVHL-HIFα binding assay was performed as previously described. HA-VHL30 was expressed in an IVTT rabbit reticulocyte lysate system (Promega, Cat. No. L1170) and incubated with 1.2 μg of biotinylated HIFαOH peptide immobilized on streptavidin agarose beads in 500 μL of EBC buffer (50 mM Tris-HCl pH 8.0, 120 mM NaCl, 0.5% (v/v) NP-40) for two hours at 4 °C. To perform a competition binding assay, 1.8 μg of biotinylated HIFαOH peptide immobilized on streptavidin agarose beads competed with 1 μg of acetylated HIFαOH peptide. Following incubation, beads were washed 4x with NETN buffer (20 mM Tris-HCl pH 8.0, 100 mM NaCl, 1 mM EDTA, 0.5% (v/v) NP-40). Biotinylated peptide was pulled down via streptavidin agarose beads and protein was eluted by boiling beads in sample buffer. Protein levels of HA-VHL30 were determined by immunoblotting.

[2] = target: T1, VHL-elongin B-elongin C (VBC) complex (Homo sapiens, UniProt P40337+Q15369+Q15370); assay: Biolayer interferometry, VBC WT binding to immobilized HIFα peptide; settings: VHL/HIFα binding experiments, Fig. 2b (pulldown) and Fig. 2d (BLI), in words
T1 construct: made in house
Method: The binding affinities of VBC to hydroxylated HIFα peptide was measured by biolayer interferometry using the BLItz system (Pall ForteBio). A 50 μg/mL solution of biotinylated HIFα peptide was prepared in kinetics buffer (20 mM HEPES pH 7.4, 200 mM NaCl, 1 mM DTT, 0.02% (v/v) Tween-20, and 0.5% (w/v) BSA) and immobilized onto streptavidin (SA)-coated biolayer interferometry (BLI) biosensors (Pall ForteBio, Cat. No. 18–5019) over 120 s. Multiple concentrations of purified VBC complex were diluted in kinetics buffer and allowed to associate with immobilized peptide over 120 s. Subsequently, the SA-BLI probe was immersed into kinetics buffer for 120 s to allow for dissociation. Both protein and buffer were chilled on ice immediately before use. The data were analyzed, step corrected, reference corrected, and fit to a global 1:1 binding model. Kd, ka, and kd were calculated using the BLItz Pro software. All measurements were performed in triplicate with independently purified recombinant protein.

VHL F91Y = assay: In vitro hydroxylation and co-immunoprecipitation of HIFα ODD with VHL F91Y; format: binding, human; settings: IVTT 3xFLAG-HIF1α ODD hydroxylated with HIS6-PHD2, anti-FLAG IP, anti-HA immunoblot, qualitative
Method: (§1) 3xFLAG-HIFα ODD was expressed via the rabbit reticulocyte lysate system. HIFα ODD was incubated with 15 μg/μL HIS6-PHD2 (181–426) in 200 μL of 40 mM HEPES pH 7.4, 80 mM KCl, 5 mM a-ketoglutarate, 2 mM ascorbic acid, 100 μM FeCl2 tetrahydrate solution at 30 °C for 1 h. Following hydroxylation, 3xFLAG-HIFα was incubated with IVTT VHL30 in 500 μL of wash buffer (40 mM HEPES pH 7.4, 80 mM KCl, 0.05% (v/v) Tween-20, 250 μM EDTA, 1 mM DTT) supplemented with protease inhibitors for 2 h at 4 °C. Following binding, 3xFLAG-HIFα ODD was immunoprecipitated with anti-FLAG antibody immobilized on protein A beads. Protein was eluted by boiling beads in sample buffer. Protein levels of HA-VHL30 were determined by immunoblotting.

HA-VHL30 [3] = assay: In vitro hydroxylation and co-immunoprecipitation of HIFα ODD with VHL WT; format: binding, human; settings: IVTT 3xFLAG-HIFα ODD hydroxylated with HIS6-PHD2 (181–426) for 1 h, anti-FLAG IP, anti-HA immunoblot, compared with the WT ODD, qualitative
Method: as §1

[4] = target: VHL-elongin B-elongin C (VBC) complex, wild type, P40337;Q15370;Q15369; assay: biolayer interferometry (BLI); settings: chain shown with the change;, read off a plot

T1 sequence (P40337 54-213 limits assumed): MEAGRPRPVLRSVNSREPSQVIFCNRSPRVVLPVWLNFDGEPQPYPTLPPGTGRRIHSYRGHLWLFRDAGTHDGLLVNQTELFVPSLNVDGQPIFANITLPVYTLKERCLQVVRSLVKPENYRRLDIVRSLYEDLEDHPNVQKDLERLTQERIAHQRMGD
T1 sequence (Q15370 whole entry partner): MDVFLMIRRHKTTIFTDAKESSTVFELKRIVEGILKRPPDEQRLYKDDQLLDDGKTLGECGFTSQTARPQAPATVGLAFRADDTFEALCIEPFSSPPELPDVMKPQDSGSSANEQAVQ
T1 sequence (Q15369 17-112 partner limits assumed): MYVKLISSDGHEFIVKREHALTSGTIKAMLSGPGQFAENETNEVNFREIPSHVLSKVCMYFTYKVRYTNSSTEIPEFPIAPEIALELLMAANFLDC

Molecule: HIF2αOH(∆G537): hydroxylated HIF2α peptide with deletion of G537 (Biotin-ELDLETLA[Hyp]YIPMDEDFQ-NH2; SMILES CC[C@H](C)[C@H](NC(=O)[C@H](Cc1ccc(O)cc1)NC(=O)[C@@H]1C[C@@H](O)CN1C(=O)[C@H](C)NC(=O)[C@H](CC(C)C)NC(=O)[C@@H](NC(=O)[C@H](CCC(=O)O)NC(=O)[C@H](CC(C)C)NC(=O)[C@H](CC(=O)O)NC(=O)[C@H](CC(C)C)NC(=O)[C@H](CCC(=O)O)NC(=O)CCCC[C@@H]1SC[C@@H]2NC(=O)N[C@@H]21)[C@@H](C)O)C(=O)N1CCC[C@H]1C(=O)N[C@@H](CCSC)C(=O)N[C@@H](CC(=O)O)C(=O)N[C@@H](CCC(=O)O)C(=O)N[C@@H](CC(=O)O)C(=O)N[C@@H](Cc1ccccc1)C(=O)N[C@@H](CCC(N)=O)C(N)=O)
- levels of HA-VHL pulled down by immobilized biotinylated HIFαOH peptide (affinity for VHL) (HA-VHL30 [1]): minor decrease in affinity for VHL

Molecule: HIF2α T528M: hydroxylated HIF2α peptide with T528M substitution (Biotin-ELDLEMLA[Hyp]YIPMDGEDFQ-NH2; SMILES CC[C@H](C)[C@H](NC(=O)[C@H](Cc1ccc(O)cc1)NC(=O)[C@@H]1C[C@@H](O)CN1C(=O)[C@H](C)NC(=O)[C@H](CC(C)C)NC(=O)[C@H](CCSC)NC(=O)[C@H](CCC(=O)O)NC(=O)[C@H](CC(C)C)NC(=O)[C@H](CC(=O)O)NC(=O)[C@H](CC(C)C)NC(=O)[C@H](CCC(=O)O)NC(=O)CCCC[C@@H]1SC[C@@H]2NC(=O)N[C@@H]21)C(=O)N1CCC[C@H]1C(=O)N[C@@H](CCSC)C(=O)N[C@@H](CC(=O)O)C(=O)NCC(=O)N[C@@H](CCC(=O)O)C(=O)N[C@@H](CC(=O)O)C(=O)N[C@@H](Cc1ccccc1)C(=O)N[C@@H](CCC(N)=O)C(N)=O)
- levels of HA-VHL pulled down by immobilized biotinylated HIFαOH peptide (affinity for VHL) (HA-VHL30 [1]): increased affinity for VHL

Molecule: Bio-HIF1αOH(M561A): hydroxylated HIF1α peptide, Met561 substituted with alanine (Biotin-DLDLEALA[Hyp]YIPMDDDFQ-NH2; SMILES CC[C@H](C)[C@H](NC(=O)[C@H](Cc1ccc(O)cc1)NC(=O)[C@@H]1C[C@@H](O)CN1C(=O)[C@H](C)NC(=O)[C@H](CC(C)C)NC(=O)[C@H](C)NC(=O)[C@H](CCC(=O)O)NC(=O)[C@H](CC(C)C)NC(=O)[C@H](CC(=O)O)NC(=O)[C@H](CC(C)C)NC(=O)[C@H](CC(=O)O)NC(=O)CCCC[C@@H]1SC[C@@H]2NC(=O)N[C@@H]21)C(=O)N1CCC[C@H]1C(=O)N[C@@H](CCSC)C(=O)N[C@@H](CC(=O)O)C(=O)N[C@@H](CC(=O)O)C(=O)N[C@@H](CC(=O)O)C(=O)N[C@@H](Cc1ccccc1)C(=O)N[C@@H](CCC(N)=O)C(N)=O)
- levels of HA-VHL pulled down by immobilized biotinylated HIFαOH peptide (affinity for VHL) (HA-VHL30 [1]): decreased affinity for pVHL

Molecule: HIF1αOH(D570delinsGE): hydroxylated HIF1α peptide with insertion of Glyn+6 to mimic HIF2α (Biotin-DLDLEMLA[Hyp]YIPMDGDDFQ-NH2; SMILES CC[C@H](C)[C@H](NC(=O)[C@H](Cc1ccc(O)cc1)NC(=O)[C@@H]1C[C@@H](O)CN1C(=O)[C@H](C)NC(=O)[C@H](CC(C)C)NC(=O)[C@H](CCSC)NC(=O)[C@H](CCC(=O)O)NC(=O)[C@H](CC(C)C)NC(=O)[C@H](CC(=O)O)NC(=O)[C@H](CC(C)C)NC(=O)[C@H](CC(=O)O)NC(=O)CCCC[C@@H]1SC[C@@H]2NC(=O)N[C@@H]21)C(=O)N1CCC[C@H]1C(=O)N[C@@H](CCSC)C(=O)N[C@@H](CC(=O)O)C(=O)NCC(=O)N[C@@H](CC(=O)O)C(=O)N[C@@H](CC(=O)O)C(=O)N[C@@H](Cc1ccccc1)C(=O)N[C@@H](CCC(N)=O)C(N)=O)
- VHL/HIFα complex stability [2]: does not overtly modulate complex stability

Molecule: MetO2: hydroxylated HIF1α peptide, Met561 completely oxidized to methionine sulfone (MetO2)
- levels of HA-VHL pulled down by immobilized biotinylated HIFαOH peptide (affinity for VHL) (HA-VHL30 [1]): further decrease in VHL affinity

Molecule: NLE-substituted HIF1α: hydroxylated HIF1α peptide, Met561 substituted with norleucine
- levels of HA-VHL pulled down by immobilized biotinylated HIFαOH peptide (affinity for VHL) (HA-VHL30 [1]): did not affect the affinity

B1: HIF1α ODD M561T: IVTT 3xFLAG-HIF1α ODD (387–581) with M561T substitution (protein)
chain: FDKLKKEPDALTLLAPAAGDTIISLDFGSNDTETDDQQLEEVPLYNDVMLPSPNEKLQNINLAMSPLPTAETPKPLRSSADPALNQEVALKLEPNPESLELSFTMPQIQDQTPSPSDGSTRQSSPEPNSPSEYCFYVDSDMVNEFKLELVEKLFAEDTEAKNPFSTQDTDLDLETLAPYIPMDDDFQLRSFDQLS
modifications: hydroxylated in vitro by HIS6-PHD2 (181–426) for one hour before the binding; left off: 3xFLAG, end not stated, kept
notes: IVTT 3xFLAG-HIF1α ODD (387–581) with M561T substitution
- HIFα ODD bound by VHL F91Y, compared with VHL WT (VHL F91Y): bound less
- affinity of HIFα ODD protein for VHL (HA-VHL co-immunoprecipitated) (HA-VHL30 [3]): decreased affinity

B2: HIF1αODD WT: IVTT 3xFLAG-tagged HIF1α oxygen-dependent degradation domain (387–581), wild type (protein)
chain: FDKLKKEPDALTLLAPAAGDTIISLDFGSNDTETDDQQLEEVPLYNDVMLPSPNEKLQNINLAMSPLPTAETPKPLRSSADPALNQEVALKLEPNPESLELSFTMPQIQDQTPSPSDGSTRQSSPEPNSPSEYCFYVDSDMVNEFKLELVEKLFAEDTEAKNPFSTQDTDLDLEMLAPYIPMDDDFQLRSFDQLS
modifications: hydroxylated in vitro by HIS6-PHD2 (181–426) for one hour before the binding; left off: 3xFLAG, end not stated, kept
notes: IVTT 3xFLAG-tagged HIF1α oxygen-dependent degradation domain (387–581), wild type
- HIFα ODD bound by VHL F91Y, compared with VHL WT (VHL F91Y): bound less

B3: HIF2α ODD T528M: IVTT 3xFLAG-HIF2α(390–554) ODD protein with T528M substitution (protein, UniProt Q99814 390-554, looked up, fragment T528M)
chain: FTKLKEEPEELAQLAPTPGDAIISLDFGNQNFEESSAYGKAILPPSQPWATELRSHSTQSEAGSLPAFTVPQAAAPGSTTPSATSSSSSCSTPNSPEDYYTSLDNDLKIEVIEKLFAMDTEAKDQCSTQTDFNELDLEMLAPYIPMDGEDFQLSPICPEERLLAE
modifications: ODD 3xFLAG tag
notes: IVTT 3xFLAG-HIF2α(390–554) ODD protein with T528M substitution
- affinity of HIFα ODD protein for VHL (HA-VHL co-immunoprecipitated) (HA-VHL30 [3]): increased the affinity

Molecule: ELDLETLAPYIPMDEDFQ [hydroxylated HIF2α peptide (523–541), biotinylated G537del]
- koff ([4]; parent: est. 0.0075 s-1): 0.011 s⁻¹
- koff ([4]; parent: est. 0.0078): 0.011 s⁻¹
